Holding throughout (conditions): tags: N-terminal His-tag
Data set [1] has as its target T1, His-tagged HMGB1 (UniProt P09429 P09429:1-215). Put plainly: SPR; comparable to unmodified R8c6_1 at 500 and 150 mM NaCl. Background: In SPR one partner is held on a chip, and binding of the other changes the refractive index at the surface.
Data set [2] concerns the target T1, His-tagged HMGB1. Briefly: SPR; 150 nM protein; excellent binding. As to the method: (§1) The ability of each of the aforementioned RNA aptamers to bind to HMGB1 in which His-tag was added to the N-terminus (His-tag-added HMGB1) was examined. For the analysis of the aforementioned binding ability, a BIACORE (registered trademark) X (manufactured by GE Healthcare) was used according to its instruction manual.
First, a sensor chip (trade name: Sensor Chip SA, manufactured by GE Heathcare) specially made for a BIACORE was set on the aforementioned BLACORE (registered trademark) X. Biotinylate deoxythymidine (5 μmol/L) was injected into the flow cell 2 of the aforementioned sensor chip using a running buffer and subjected to binding until the signal intensity (RU: resonance unit) reached about 1000 RU. For the aforementioned biotinylated deoxythymidine, 20-base-long deoxythymidine in which the 5′ end was biotinylated was used. Then, 10 μg/mL of an RNA aptamer was injected at a flow rate of 20 μL/min for 1 min into the aforementioned flow cells 1 and 2 of the aforementioned chip using a running buffer and subjected to binding until the signal intensity reached about 1000 RU. Next, […] of 20 μL/min for 30 sec using the aforementioned running buffer, and under the same conditions the aforementioned running buffer was allowed to flow continuously for washing. Simultaneously with the injection of the aforementioned His-tag-added HMGB1 and washing with the aforementioned running buffer, signal intensity was measured. The aforementioned running buffer was composed of 20 mmol/L of HEPES, 500 mmol/L of NaCl, 0.1 mmol/L of MgCl₂, and 0.1% Triton X-100 (registered trademark), with the pH thereof being 7.2. As a blocking agent for suppressing nonspecific binding, tRNA was used in a concentration of 1 mg/mL. In a comparative example, signal intensity was measured in the same manner except that the aforementioned comparative example RNA was used in place of the aforementioned example RNA aptamers.

The target of data set [3] is T1, His-tagged HMGB1. Briefly: SPR; 150 nM protein; listed in Table 7. As to the method: as §1
First, a sensor chip (trade name: Sensor Chip SA, manufactured by GE Heathcare) specially made for a BIACORE was set on the aforementioned BLACORE (registered trademark) X. Biotinylate deoxythymidine (5 μmol/L) was injected into the flow cell 2 of the aforementioned sensor chip using a running buffer and subjected to binding until the signal intensity (RU: resonance unit) reached about 1000 RU. For the aforementioned biotinylated deoxythymidine, 20-base-long deoxythymidine in which the 5′ end was biotinylated was used. […] Simultaneously with the injection of the aforementioned His-tag-added HMGB1 and washing with the aforementioned running buffer, signal intensity was measured. […] In a comparative example, signal intensity was measured in the same manner except that the aforementioned comparative example RNA was used in place of the aforementioned example RNA aptamers.

Data set [4] addresses T1, His-tagged HMGB1. Put plainly: SPR; superior to R8c6_1; 160 nM protein. As to the method:
(§2) First, a sensor chip (trade name: Sensor Chip SA, manufactured by GE Heathcare) specially made for a BIACORE was set on the aforementioned BLACORE (registered trademark) X. Biotinylate deoxythymidine (5 μmol/L) was injected into the flow cell 2 of the aforementioned sensor chip using a running buffer and subjected to binding until the signal intensity (RU: resonance unit) reached about 1000 RU. For the aforementioned biotinylated deoxythymidine, 20-base-long deoxythymidine in which the 5′ end was biotinylated was used. Then, 10 μg/mL of an RNA aptamer was injected at a flow rate of 20 μL/min for 1 min into the aforementioned flow cells 1 and 2 of the aforementioned chip using a running buffer and subjected to binding until the signal intensity reached about 1000 RU. Next, […] of 20 μL/min for 30 sec using the aforementioned running buffer, and under the same conditions the aforementioned running buffer was allowed to flow continuously for washing. Simultaneously with the injection of the aforementioned His-tag-added HMGB1 and washing with the aforementioned running buffer, signal intensity was measured. […] In a comparative example, signal intensity was measured in the same manner except that the aforementioned comparative example RNA was used in place of the aforementioned example RNA aptamers. […]

Data set [5] addresses T1, His-tagged HMGB1. Put plainly: SPR; 200 nM protein; comparable to unmodified R8c6_1 at 150 mM NaCl.
For data set [6], the target named is T1, His-tagged HMGB1. Briefly: SPR; 200 nM protein, 150 mM NaCl; excellent binding. As to the method:
as §2

Data set [7] has as its target T1, His-tagged HMGB1. Briefly: SPR; 635 nM protein, 500 mM NaCl. Here is the method:
(§3) First, a sensor chip (trade name: Sensor Chip SA, manufactured by GE Heathcare) specially made for a BIACORE was set on the aforementioned BLACORE (registered trademark) X. Biotinylate deoxythymidine (5 μmol/L) was injected into the flow cell 2 of the aforementioned sensor chip using a running buffer and subjected to binding until the signal intensity (RU: resonance unit) reached about 1000 RU. For the aforementioned biotinylated deoxythymidine, 20-base-long deoxythymidine in which the 5′ end was biotinylated was used. Then, 10 μg/mL of an RNA aptamer was injected at a flow rate of 20 μL/min for 1 min into the aforementioned flow cells 1 and 2 of the aforementioned chip using a running buffer and subjected to binding until the signal intensity reached about 1000 RU. Next, 675 nmol/L of the aforementioned His-tag-added HMGB1 was injected at a flow rate of 20 μL/min for 30 sec using the aforementioned running buffer, and under the same conditions the aforementioned running buffer was allowed to flow continuously for washing. Simultaneously with the injection of the aforementioned His-tag-added HMGB1 and washing with the aforementioned running buffer, signal intensity was measured. The aforementioned running buffer was composed of 20 mmol/L of HEPES, 500 mmol/L of NaCl, 0.1 mmol/L of MgCl₂, and 0.1% Triton X-100 (registered trademark), with the pH thereof being 7.2. As a blocking agent for suppressing nonspecific binding, tRNA was used in a concentration of 1 mg/mL. In a comparative example, signal intensity was measured in the same manner except that the aforementioned comparative example RNA was used in place of the aforementioned example RNA aptamers.
An analysis of ability to bind to His-tag-added HMGB1 was carried out in the same manner as in (2) above of the aforementioned Example 1 except that the aforementioned RNA aptamers were used, the concentration of the aforementioned His-tag-added HMGB1 was 635 nmol/L, and the injection time of the aforementioned His-tag-added HMGB1 was 60 seconds. […]

Data set [8] has as its target T1, His-tagged HMGB1. Briefly: SPR; 200 nM protein, 500 mM NaCl. Here is the method:
as §3
An analysis of ability to bind to His-tag-added HMGB1 was carried out in the same manner as in (2) above of the aforementioned Example 1 except that the aforementioned fluorinated RNA aptamers were used, the concentration of His-tag-added HMGB1 was 200 nmol/L, and the injection time of the aforementioned His-tag-added HMGB1 was 60 seconds. Also, an analysis was carried out in the same manner on the aforementioned 2′F-40N and unmodified R8c6_{—}1 that was not fluorinated.

T1 sequence (P09429 whole entry, one chain of several): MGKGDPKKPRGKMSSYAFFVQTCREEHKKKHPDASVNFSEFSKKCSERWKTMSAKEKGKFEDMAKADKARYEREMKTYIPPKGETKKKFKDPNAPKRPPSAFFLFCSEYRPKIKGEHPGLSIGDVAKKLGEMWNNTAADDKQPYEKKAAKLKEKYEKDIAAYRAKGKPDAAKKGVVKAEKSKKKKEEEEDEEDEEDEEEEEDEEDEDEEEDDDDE

B1: 2'F-R8c6_1-18 (ssRNA)
RNA: GGGAGUACAGUAAGACACGUAGCACCAGUCUGACGUUUGUCGUCAGUGCCUGGACGUGCAGU
modifications: 2'-F on all C and U
As for B1, the binding result in data set [1] is “binds”.
As to GGGAGUACAGUAAGACACGUAGCACCAGUGUGCCUGGACGUGCAGU (ssRNA, 2'-F on all C and U) [2'F-R8c6_1-18-S6], the binding result in data set [2] is “binds”.
On to GGGUAAGACACGUAGCACCAGUGUGCCUGGACGUGCGU (ssRNA, 2'-F on all C and U) [2'F-R8c6_1-25-S6A3], for which the binding result in data set [3] was “binds”.
Take GGGACAGUAAGACACGUAGCACCAGUGUGCCUGGACGUGCAGU (ssRNA, 2'-F on all C and U) [2'F-R8c6_1-21-S6]: the binding result in data set [2] is “binds”.

B2: R8c6_1-18-S2 (ssRNA)
RNA: GGGAGUACAGUAAGACACGUAGCACCAGUCGCGUUUGUCGCGUGCCUGGACGUGCAGU
In the case of B2, the binding result in data set [4] is listed as “binds”.

B3: 2'F-R8c6_1 (2'F-CU-R8c6_1) (ssRNA)
RNA: GGGACGCUCACGUACGCUCAGAGUACAGUAAGACACGUAGCACCAGUCUGACGUUUGUCGUCAGUGCCUGGACGUGCAGU
modifications: 2'-F on all C and U
B3: the binding result in data set [5] was “binds”.

B4: 2'F-C-R8c6_1 (ssRNA)
RNA: B3 RNA
modifications: 2'-F on all C
On to B4, for which the binding result in data set [6] was “binds”.

B5: 2'F-U-R8c6_1 (ssRNA)
RNA: B3 RNA
modifications: 2'-F on all U
With B5, the binding result in data set [6] is on record as “binds”.

B6: R8c6_1-3 (ssRNA)
RNA: GGGACGCUCACGUACGCUCAGAGUACAGUAAGACACGUAGCACCAGUCUGACGUUUGUCGUCAGUGCCUGGACGUGC
Regarding B6, in data set [7], the binding result is on record as “binds”.

B7: R8c6_1-1 (ssRNA)
RNA: GGGACGCUCACGUACGCUCAGAGUACAGUAAGACACGUAGCACCAGUCUGACGUUUGUCGUCAGUGCCUGGACGUGCAG
B7: the binding result in data set [7] is recorded as “binds”.

B8: 2'F-R8c6_1-1 (ssRNA)
RNA: B7 RNA
modifications: 2'-F on all C and U
For B8, the binding result in data set [8] is on record as “binds”.

B9: 2'F-R8c6_1-21 (ssRNA)
RNA: GGGACAGUAAGACACGUAGCACCAGUCUGACGUUUGUCGUCAGUGCCUGGACGUGCAGU
modifications: 2'-F on all C and U
Take B9: in data set [8], the binding result is listed as “binds”.
For GGGACAGUAAGACACGUAGCACCAGUGCCUGGACGUGCAGU (ssRNA, 2'-F on all C and U) [2'F-R8c6_1-21-S8], in data set [2], the binding result is listed as “binds”.

B10: 2'F-R8c6_1-15 (ssRNA)
RNA: GGGCAGAGUACAGUAAGACACGUAGCACCAGUCUGACGUUUGUCGUCAGUGCCUGGACGUGCAGU
modifications: 2'-F on all C and U
Take B10: the binding result in data set [8] is listed as “binds”.

B11: R8c6_1-25 (ssRNA)
RNA: GGGUAAGACACGUAGCACCAGUCUGACGUUUGUCGUCAGUGCCUGGACGUGCAGU
As for B11, the binding result in data set [4] was “binds”.

B12: 2'F-R8c6_1-25 (ssRNA)
RNA: B11 RNA
modifications: 2'-F on all C and U
Turning to B12, the binding result in data set [2] is reported as “binds”.

B13: R8c6_1-4 (ssRNA)
RNA: GGGACGCUCACGUACGCUCAGAGUACAGUAAGACACGUAGCACCAGUCUGACGUUUGUCGUCAGUGCCUGGACGUG
Turning to B13, in data set [7], the binding result is listed as “binds”.

B14: 2'F-R8c6_1-4 (ssRNA)
RNA: B13 RNA
modifications: 2'-F on all C and U
On to B14, for which the binding result in data set [8] is recorded as “binds”.

Values taken from patent publication US20120208867, “HMGB1 BINDING NUCLEIC ACID MOLECULE AND APPLICATIONS THEREOF” (published 2012).
